The values that follow come from US20210063414A1, “METHODS FOR PREVENTING AND/OR TREATING BONE LOSS CONDITIONS BY MODULATING IRISIN” (Dana-Farber Cancer Institute, Inc., priority 2018, published 2021).

Common to all, as to test: Crosslinking/co-immunoprecipitation/mass spectrometry (TMT quantitative proteomics) to identify irisin receptors
Common to all, as to format: binding

Assay [1] concerns the target T1, MLO-Y4 cell surface proteins (Mus musculus, UniProt Q62028).
T1 construct: endogenous in cells; host or cells: MLO-Y4
The settings on record: co-precipitated protein Pla2r1 (PLA2R_MOUSE). The procedure, abridged: (§1)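 Relative protein abundance came from 6-plex TMT MS3 quantitation on an Orbitrap Fusion Lumos, after in-gel trypsin digestion of Coomassie-stained SDS-PAGE lanes. Input was a Ni-NTA pulldown (250 mM imidazole elution) of lysates from murine MLO-Y4 cells. These cells were treated on ice with His-tagged irisin or adipsin (10 nM, 20 min) in serum-free medium, then crosslinked with 1.5 mM DTSSP for 30 min.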

Assay [2] concerns the target T2, MLO-Y4 cell surface proteins (Mus musculus, UniProt P41216).
T2 construct: endogenous in cells; host or cells: MLO-Y4
T2 sequence (P41216 1-699): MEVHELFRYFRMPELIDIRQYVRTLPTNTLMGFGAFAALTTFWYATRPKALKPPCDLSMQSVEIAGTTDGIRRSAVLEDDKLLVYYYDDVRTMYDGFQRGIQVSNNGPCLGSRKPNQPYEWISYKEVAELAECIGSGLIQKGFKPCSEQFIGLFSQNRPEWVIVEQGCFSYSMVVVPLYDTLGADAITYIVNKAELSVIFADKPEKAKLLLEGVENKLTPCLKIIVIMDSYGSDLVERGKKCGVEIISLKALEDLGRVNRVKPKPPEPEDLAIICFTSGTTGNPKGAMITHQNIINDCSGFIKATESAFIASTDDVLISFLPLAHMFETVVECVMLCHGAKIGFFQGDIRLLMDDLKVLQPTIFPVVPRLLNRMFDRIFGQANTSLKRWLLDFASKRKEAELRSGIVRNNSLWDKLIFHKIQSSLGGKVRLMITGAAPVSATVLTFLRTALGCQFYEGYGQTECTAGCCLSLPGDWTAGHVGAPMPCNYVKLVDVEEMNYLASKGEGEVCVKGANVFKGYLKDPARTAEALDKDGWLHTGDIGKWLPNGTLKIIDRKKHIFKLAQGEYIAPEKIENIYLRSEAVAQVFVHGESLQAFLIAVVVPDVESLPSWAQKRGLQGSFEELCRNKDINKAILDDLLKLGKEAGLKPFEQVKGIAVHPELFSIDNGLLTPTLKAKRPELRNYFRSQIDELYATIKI
The settings on record: co-precipitated protein Acsl1 (ACSL1_MOUSE). A digest of the protocol:
as §1

Assay [3] concerns the target T3, MLO-Y4 cell surface proteins (Mus musculus, UniProt P97360).
T3 construct: endogenous in cells; host or cells: MLO-Y4
T3 sequence (P97360 1-485): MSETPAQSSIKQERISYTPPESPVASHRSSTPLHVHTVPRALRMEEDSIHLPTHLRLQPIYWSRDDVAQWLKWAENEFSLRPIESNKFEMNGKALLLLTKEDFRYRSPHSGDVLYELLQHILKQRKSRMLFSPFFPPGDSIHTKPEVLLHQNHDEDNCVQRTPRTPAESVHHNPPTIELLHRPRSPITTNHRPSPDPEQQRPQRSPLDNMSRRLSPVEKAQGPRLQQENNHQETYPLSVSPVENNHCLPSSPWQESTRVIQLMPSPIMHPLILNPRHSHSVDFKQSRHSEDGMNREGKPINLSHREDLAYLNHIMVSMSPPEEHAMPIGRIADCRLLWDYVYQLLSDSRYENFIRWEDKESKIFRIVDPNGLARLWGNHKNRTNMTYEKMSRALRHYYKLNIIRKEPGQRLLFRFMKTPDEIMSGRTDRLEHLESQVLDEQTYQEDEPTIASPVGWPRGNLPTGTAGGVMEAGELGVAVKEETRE
To be noted: co-precipitated protein Etv6 (ETV6_MOUSE). A digest of the protocol: as §1

Assay [4] addresses T4, MLO-Y4 cell surface proteins (Mus musculus, UniProt P62880).
T4 construct: endogenous in cells; host or cells: MLO-Y4
The settings on record: co-precipitated protein Gnb2 (GBB2_MOUSE). The procedure, abridged: as §1

T4 sequence (P62880 whole entry): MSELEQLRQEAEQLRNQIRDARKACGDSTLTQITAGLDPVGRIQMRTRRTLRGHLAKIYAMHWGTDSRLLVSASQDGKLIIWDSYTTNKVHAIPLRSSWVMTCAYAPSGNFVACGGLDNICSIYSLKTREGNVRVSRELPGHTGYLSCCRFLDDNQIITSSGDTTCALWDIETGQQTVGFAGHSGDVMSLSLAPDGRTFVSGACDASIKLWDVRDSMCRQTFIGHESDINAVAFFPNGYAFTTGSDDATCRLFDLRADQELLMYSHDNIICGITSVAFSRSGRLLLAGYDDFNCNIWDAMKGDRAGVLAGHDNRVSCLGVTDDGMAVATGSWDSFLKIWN
T1 sequence (Q62028 27-1487): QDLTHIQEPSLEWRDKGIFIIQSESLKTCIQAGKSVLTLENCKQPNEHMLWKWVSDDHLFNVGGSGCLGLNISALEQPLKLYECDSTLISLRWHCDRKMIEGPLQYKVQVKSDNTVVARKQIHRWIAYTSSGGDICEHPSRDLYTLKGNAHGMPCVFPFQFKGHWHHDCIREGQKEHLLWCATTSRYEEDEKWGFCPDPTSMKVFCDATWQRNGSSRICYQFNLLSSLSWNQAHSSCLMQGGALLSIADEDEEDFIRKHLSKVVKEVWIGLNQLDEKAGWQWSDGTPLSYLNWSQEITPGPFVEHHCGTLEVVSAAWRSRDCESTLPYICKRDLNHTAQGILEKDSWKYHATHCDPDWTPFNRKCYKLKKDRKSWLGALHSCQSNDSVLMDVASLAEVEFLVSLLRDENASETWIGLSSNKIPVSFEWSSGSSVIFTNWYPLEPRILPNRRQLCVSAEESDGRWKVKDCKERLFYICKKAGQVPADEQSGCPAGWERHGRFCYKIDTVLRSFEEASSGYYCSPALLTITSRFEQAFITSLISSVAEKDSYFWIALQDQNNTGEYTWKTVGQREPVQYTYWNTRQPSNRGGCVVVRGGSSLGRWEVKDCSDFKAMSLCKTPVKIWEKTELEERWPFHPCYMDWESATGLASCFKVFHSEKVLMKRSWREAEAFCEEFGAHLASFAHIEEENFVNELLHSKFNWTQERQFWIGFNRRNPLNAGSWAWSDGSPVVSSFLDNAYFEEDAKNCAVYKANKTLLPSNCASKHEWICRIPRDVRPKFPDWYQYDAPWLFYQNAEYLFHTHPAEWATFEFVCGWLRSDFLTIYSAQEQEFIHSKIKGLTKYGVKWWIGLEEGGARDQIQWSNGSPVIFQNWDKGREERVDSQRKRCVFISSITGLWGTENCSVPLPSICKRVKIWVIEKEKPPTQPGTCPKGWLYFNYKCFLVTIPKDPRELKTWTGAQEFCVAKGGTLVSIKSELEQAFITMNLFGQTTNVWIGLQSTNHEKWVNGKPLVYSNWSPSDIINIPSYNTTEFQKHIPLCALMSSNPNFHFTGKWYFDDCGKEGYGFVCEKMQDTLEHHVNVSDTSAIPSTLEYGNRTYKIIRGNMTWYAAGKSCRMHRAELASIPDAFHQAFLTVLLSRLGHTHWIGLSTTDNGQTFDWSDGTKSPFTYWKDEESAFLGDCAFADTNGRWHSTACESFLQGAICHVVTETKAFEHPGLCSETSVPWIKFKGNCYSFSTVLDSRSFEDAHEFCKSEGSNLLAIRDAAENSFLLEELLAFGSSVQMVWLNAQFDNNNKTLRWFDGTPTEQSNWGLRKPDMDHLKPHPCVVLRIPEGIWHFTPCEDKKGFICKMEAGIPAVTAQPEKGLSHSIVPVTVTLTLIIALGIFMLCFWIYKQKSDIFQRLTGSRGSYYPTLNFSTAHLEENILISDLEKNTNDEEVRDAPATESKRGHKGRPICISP

For the substance adipsin, the TMT signal-to-noise ratio stood at 519.664 in assay [1], 361.33 in assay [2], 137.108 in assay [3] and 294.957 in assay [4].
